The source of these data is article doi:10.64898/2025.12.11.693645 (bioRxiv, 2025).

The data set deals with the molecule itself. Description: crystal structure.

B1: full length HtpG from M. tuberculosis (HtpGMtb) (enzyme)
chain: MNAHVEQLEFQAEARQLLDLMVHSVYSNKDAFLRELISNASDALDKLRIEALRNKDLEVDTSDLHIEIDADKAARTLTVRDNGIGMAREEVVDLIGTLAKSGTAELRAQLREAKNAAASEELIGQFGIGFYSSFMVADKVQLLTRKAGESAATRWESSGEGTYTIESVEDAPQGTSVTLHLKPEDAEDDLHDYTSEWKIRNLVKKYSDFIAWPIRMDVERRTPASQEEGGEGGEETVTIETETLNSMKALWARPKEEVSEQEYKEFYKHVAHAWDDPLEIIAMKAEGTFEYQALLFIPSHAPFDLFDRDAHVGIQLYVKRVFIMGDCDQLMPEYLRFVKGVVDAQDMSLNVSREILQQDRQIKAIRRRLTKKVLSTIKDVQSSRPEDYRTFWTQFGRVLKEGLLSDIDNRETLLGISSFVSTYSEEEPTTLAEYVERMKDGQQQIFYATGETRQQLLKSPHLEAFKAKGYEVLLLTDPVDEVWVGMVPEFDGKPLQSVAKGEVDLSSEEDTSEAEREERQKEFADLLTWLQETLSDHVKEVRLSTRLTESPACLITDAFGMTPALARIYRASGQEVPVGKRILELNPSHPLVTGLRQAHQDRADDAEKSLAETAELLYGTALLAEGGALEDPARFAELLAERLARTL
Regarding B1, the binding result is given as “binds”.
